Reference: publication PMC10514136, “Peptide-conjugated antimiRs improve myotonic dystrophy type 1 phenotypes by promoting endogenous MBNL1 expression” (Molecular Therapy. Nucleic Acids, 2023)
Where “and” joins values, the source holds several entries; their conditions need not be identical. Equal values may be shown once. Read-outs that look alike come from different tables or passages of the source.

Tests used:
Atp2a1 exon 22 = assay: Alternative splicing of Atp2a1 exon 22 in muscle by RT-PCR (PSI, splice recovery); format: in vivo, mouse; settings: HSALR mice, individual mice; for Percentage spliced-in (PSI) Atp2a1 Gast: 9.2 mg/kg (mean) i.v. x3, day 45, gastrocnemius; for Percentage spliced-in (PSI) Atp2a1 Quads: 9.2 mg/kg (mean) i.v. x3, day 45, quadriceps
Method: Total RNA from murine gastrocnemius and quadriceps muscle was isolated using the miRNeasy Mini Kit (QIAGEN, Hilden, Germany) according to the manufacturer’s instructions. One microgram of RNA was digested with DNase I (Invitrogen, Carlsbad, CA) and reverse transcribed with SuperScript II (Invitrogen) using random hexanucleotides. For subsequent PCR reactions, 20 ng of cDNA was used with GoTaq polymerase (Promega). Specific primers were used to analyze the alternative splicing of Nfix, Atp2a1, and Clcn1 in mouse samples (both muscles). Gapdh levels established the endogenous reference levels using 0.2 ng of cDNA. PCR products were separated on a 2% agarose gel and quantified using ImageJ software (NIH, Bethesda, MD). PSR index was defined as value%SI minus X¯%DSI , divided by X¯%DSI minus X¯%HSI (SI, splicing inclusion of each sample; DSI, disease splicing inclusion; HSI, healthy splicing inclusion). Overall, PSR indicates the amount in both muscles analyzed. Primer sequences and exons analyzed are available in Cerro-Herreros et al.[20] In the case of off-targets, interleukins, and muscle regeneration marker Mstn-1, primers sequences are available in Table S5. We used 1 ng of mouse tissue cDNA as a template for multiplex qPCR using the QuantiFast Probe PCR Kit reagent. Commercial TaqMan probes (QIAGEN) were used for mouse (Mbnl1 and Mbnl2; FAM-labeled probes) and reference (GAPDH; MAX-labeled probe) genes. Results were normalized to Gapdh endogenous gene expression.
We used homozygous transgenic HSA^LR (line 20 b) mice,[90] which were kindly provided by Dr Thornton (Rochester, NY) and were housed and bred in our animal facility. Experimental groups were FVB as healthy control and HSA^LR treated with a scrambled ON (SC) and PBS as negative controls, and HSA^LR mice treated with all six experimental CPP-PMOs. The mice were randomly allocated to the different treatments as follows: in each cage, each mouse was ear-marked as it was taken out, and each mouse was then assigned to a different treatment. […] Mice were sacrificed 45 days after the first injection and the tissues of interest were frozen in liquid nitrogen for the molecular and histological assays. All the mice used in this study ranged from 5 to 5.5 months of age and all were males.

DM1 cells = assay: Cell proliferation assay (CellTiter 96 AQueous), cell growth inhibition after lipofection; format: cell-based, human
Method: Cells seeded at 10^5 cells/mL in 96-well plates were transfected 24 h later with antimiRs as described previously.[20] After 96 h, cell proliferation was measured using the CellTiter 96 AQueous Non-Radioactive Cell Proliferation Assay (Promega, Madison, WI). Absorbance levels were determined using an Infinite M200 PRO plate reader (Tecan, Männedorf, Switzerland) and the TC50 was calculated using non-linear least-squares regression.

HSALR mice = assay: White blood cell differential count; format: in vivo, mouse
Description: Mouse handling and experimental procedures followed the European law regarding laboratory animal care and experimentation (2003/65/C.E.) and were approved by Conselleria de Agricultura, […] (reference no. A1539961490857). We used homozygous transgenic HSA^LR (line 20 b) mice,[90] which were kindly provided by Dr Thornton (Rochester, NY) and were housed and bred in our animal facility. […] The mice were randomly allocated to the different treatments as follows: in each cage, each mouse was ear-marked as it was taken out, and each mouse was then assigned to a different treatment. Animals were injected biweekly intravenously with 150 μL of 1× PBS vehicle (controls; […] Mice were sacrificed 45 days after the first injection and the tissues of interest were frozen in liquid nitrogen for the molecular and histological assays. All the mice used in this study ranged from 5 to 5.5 months of age and all were males. At 45 days post treatment, animals were sacrificed, and blood was collected by cardiac puncture exsanguination with K3-EDTA (Sarstedt, Nümbrecht, Germany). The samples were analyzed by Laboratorios Montoro Botella (Valencia, Spain).

[1] = HSALR mice, 9.2 mg/kg (mean) i.v. x3, day 45, blood, differential count, mean ± sd

| Substance | Percentage spliced-in (PSI) Atp2a1 Gast (Atp2a1 exon 22) | Percentage spliced-in (PSI) Atp2a1 Quads (Atp2a1 exon 22) | TC50 (DM1 cells) [nM] | Basophils (HSALR mice; mouse, in vivo, iv, 9.2 mg/kg) | Eosinophils (HSALR mice; mouse, in vivo, iv, 9.2 mg/kg) | Lymphocytes (HSALR mice; mouse, in vivo, iv, 9.2 mg/kg) | Monocytes (HSALR mice; mouse, in vivo, iv, 9.2 mg/kg) | Seg cells (HSALR mice; mouse, in vivo, iv, 9.2 mg/kg) | TC50 (DM1 cells; toxic concentration 50, DM1 cells transfected 24 h after seeding, read after 96 h, absorbance, non-linear least-squares regression) [nM] | Basophils (HSALR mice; [1]) [%] | Eosinophils (HSALR mice; [1]) | Lymphocytes (HSALR mice; [1]) | Monocytes (HSALR mice; [1]) | Seg cells (HSALR mice; [1]) | Stab cells (HSALR mice; [1]) |
| --- | --- | --- | --- | --- | --- | --- | --- | --- | --- | --- | --- | --- | --- | --- | --- |
| 9b2-23b (antisense GGUAAUCCCUGGCAAUGUGAU; all phosphorodiamidate morpholino (PMO), T or U not given here; Pip9b2 peptide conjugated) | 52.69% and 18.37% and 16.01% and 11.16% and 23.52% | 98.27% and 99.53% and 75.32% and 25.61% and 36.45% | 88.00 | 0,2 ± 0,447% | 6,20 ± 2,588% | 65,40 ± 6,189% | 6,20 ± 2,683% | 21 ± 3,391% | – | – | – | – | – | – | – |
| 6aKC-218 (antisense ACAUGGUUAGAUCAAGCACAA; all phosphorodiamidate morpholino (PMO), T or U not given here; Pip6aKC peptide conjugated) | 14.70% and 11.51% and 10.78% and 31.20% and 12.62% | 21.08% and 26.96% and 31.16% and 9.84% and 26.51% | 1809.00 | 0 ± 0% | 0,60 ± 0,894% | 57,20 ± 12,357% | 21,40 ± 7,127% | 20,4 ± 6,189% | – | – | – | – | – | – | – |
| TCTTACCTCAGTTACAATTTA-Pip9b2 [Scramble, reference compound] | 6.44% and 27.49% and 24.15% and 5.60% and 15.65% | 18.65% and 34.43% and 18.71% and 17.01% and 7.50% | – | – | – | – | – | – | 217.00 | 0 ± 0 | 2 ± 0,707% | 60 ± 14,543% | 11,60 ± 7,829% | 25,8 ± 8,349% | 0,60 ± 0,548% |
| 6aKC-23b (antisense GGUAAUCCCUGGCAAUGUGAU; all phosphorodiamidate morpholino (PMO), T or U not given here; Pip6aKC peptide conjugated) | 14.22% and 26.08% and 16.73% and 17.96% and 14.74% | 29.81% and 23.38% and 17.76% and 24.03% and 33.87% | 1711.00 | 0 ± 0% | 2,40 ± 1,341% | 47,80 ± 12,133% | 17,60 ± 7,537% | 31,2 ± 13,142% | – | – | – | – | – | – | – |
| 9b2-218 (antisense ACAUGGUUAGAUCAAGCACAA; all phosphorodiamidate morpholino (PMO), T or U not given here; Pip9b2 peptide conjugated) | 14.72% and 85.58% and 28.83% and 19.19% and 31.61% | 71.69% and 99.29% and 50.19% and 99.72% and 99.28% | 42.00 | 0,2 ± 0,447% | 5,40 ± 2,073% | 61,60 ± 4,159% | 9,60 ± 3,209% | 22,40 ± 3,647% | – | – | – | – | – | – | – |
| 9b2KC-23b (antisense GGUAAUCCCUGGCAAUGUGAU; all phosphorodiamidate morpholino (PMO), T or U not given here; Pip9b2KC peptide conjugated) | 11.22% and 31.29% and 33.92% and 10.51% and 42.67% | 37.72% and 33.71% and 28.53% and 24.15% and 39.24% | 256.00 | 0 ± 0% | 9,50 ± 3,109% | 60,25 ± 6,185% | 5,75 ± 2,363% | 23,5 ± 4,203% | – | – | – | – | – | – | – |
| 9b2KC-218 (antisense ACAUGGUUAGAUCAAGCACAA; all phosphorodiamidate morpholino (PMO), T or U not given here; Pip9b2KC peptide conjugated) | 12.53% and 17.65% and 19.44% and 12.90% and 35.28% | 99.70% and 25.98% and 29.31% and 30.83% and 25.20% | 88.26 | 0 ± 0% | 7,20 ± 2,28% | 59,60 ± 3,130% | 6,40 ± 2,074% | 25,8 ± 4,324% | – | – | – | – | – | – | – |
